# Several values for one entry are separate records, joined by “and”; a condition that tells them apart may be missing. Equal entries are not always repeated.
# B1: Anion exchanger 1 (AE1) (natural protein, human (endogenous in erythrocytes), UniProt P02730 1-911, looked up)
# chain: MEELQDDYEDMMEENLEQEEYEDPDIPESQMEEPAAHDTEATATDYHTTSHPGTHKVYVELQELVMDEKNQELRWMEAARWVQLEENLGENGAWGRPHLSHLTFWSLLELRRVFTKGTVLLDLQETSLAGVANQLLDRFIFEDQIRPQDREELLRALLLKHSHAGELEALGGVKPAVLTRSGDPSQPLLPQHSSLETQLFCEQGDGGTEGHSPSGILEKIPPDSEATLVLVGRADFLEQPVLGFVRLQEAAELEAVELPVPIRFLFVLLGPEAPHIDYTQLGRAAATLMSERVFRIDAYMAQSRGELLHSLEGFLDCSLVLPPTDAPSEQALLSLVPVQRELLRRRYQSSPAKPDSSFYKGLDLNGGPDDPLQQTGQLFGGLVRDIRRRYPYYLSDITDAFSPQVLAAVIFIYFAALSPAITFGGLLGEKTRNQMGVSELLISTAVQGILFALLGAQPLLVVGFSGPLLVFEEAFFSFCETNGLEYIVGRVWIGFWLILLVVLVVAFEGSFLVRFISRYTQEIFSFLISLIFIYETFSKLIKIFQDHPLQKTYNYNVLMVPKPQGPLPNTALLSLVLMAGTFFFAMMLRKFKNSSYFPGKLRRVIGDFGVPISILIMVLVDFFIQDTYTQKLSVPDGFKVSNSSARGWVIHPLGLRSEFPIWMMFASALPALLVFILIFLESQITTLIVSKPERKMVKGSGFHLDLLLVVGMGGVAALFGMPWLSATTVRSVTHANALTVMGKASTPGAAAQIQEVKEQRISGLLVAVLVGLSILMEPILSRIPLAVLFGIFLYMGVTSLSGIQLFDRILLLFKPPKYHPDVPYVKRVKTWRMHLFTGIQIICLAVLWVVKSTPASLALPFVLILTVPLRRVLLPLIFRNVELQCLDADDAKATFDEEEGRDEYDEVAMPV
# modifications: extensive and variable glycosylation (sites not given)
# Target: the molecule itself
# Assay: cross-linking
protein,measurement,value
B1,stoichiometry N,2 and 4

# Reference: publication PMC5214978 (Structure (London, England : 1993), 2016)
